The target of the test is glucagon receptor (rat ventricular myocardium) (rat (endogenous in Sprague-Dawley rat right ventricle)) (UniProt P30082).
UniProt P30082, sequence (P30082 27-485): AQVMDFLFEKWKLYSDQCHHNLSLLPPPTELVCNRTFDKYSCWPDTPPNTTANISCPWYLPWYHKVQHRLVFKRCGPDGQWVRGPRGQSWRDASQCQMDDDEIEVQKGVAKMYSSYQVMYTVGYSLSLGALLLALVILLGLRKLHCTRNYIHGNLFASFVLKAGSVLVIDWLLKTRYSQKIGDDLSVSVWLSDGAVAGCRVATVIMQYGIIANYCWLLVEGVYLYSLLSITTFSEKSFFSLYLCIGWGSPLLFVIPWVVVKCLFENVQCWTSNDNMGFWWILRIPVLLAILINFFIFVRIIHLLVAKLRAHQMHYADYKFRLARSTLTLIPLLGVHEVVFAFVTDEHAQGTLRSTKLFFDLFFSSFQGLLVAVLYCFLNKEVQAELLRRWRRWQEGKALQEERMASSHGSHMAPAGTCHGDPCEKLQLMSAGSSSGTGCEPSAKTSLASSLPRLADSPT

glucagon, sequence (P01275 53-81): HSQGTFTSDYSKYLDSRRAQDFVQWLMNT

For the substance “glucagon (from UniProt P01275 53-81) (ligand)”, the Emax of the inotropic response (percent increase in contractility over baseline) of rat right ventricle strips to glucagon (1–1000 nM), in the absence of IBMX amounted to 40%; the Emax of the inotropic response (percent increase in contractility over baseline) of rat right ventricle strips to glucagon (1–1000 nM), in the presence of 30 µM IBMX is 75%; the –log EC50 of the positive inotropic response (contractility) of electrically driven rat right ventricle strips to glucagon (1–1000 nM), glucagon alone is 7.1 –log EC50.

These data come from article PMC10230788.
